The subject of series [1] is split-Cas9 (alpha-helical lobe + nuclease lobe) (Streptococcus pyogenes). Nature of the series: cell_activity. The settings on record: HEK293T nucleofected RNP, nocodazole synchronized; 0.6% unsynchronized; WT 34% and 22%.
For series [2], the target named is Cas9 nuclease lobe (Streptococcus pyogenes) (UniProt Q99ZW2). Nature of the series: filter.
The target in series [3] is Cas9 alpha-helical lobe (Streptococcus pyogenes) (UniProt Q99ZW2). Nature of the series: filter. Particulars: 5 mM MgCl2, RT.
Series [4] addresses dCas9 D10A,H840A (Streptococcus pyogenes) (UniProt Q99ZW2). Briefly: EMSA. Particulars: 5 mM MgCl2, heparin, RT; PAM NGG. For orientation: A gel shift assay detects complexes by their altered migration in electrophoresis.
In series [5] the test system is split-dCas9 (alpha-helical lobe + dNuclease lobe) D10A,H840A (Streptococcus pyogenes). Briefly: EMSA. Particulars: apparent; complex dissociation contributes; 5 mM MgCl2, heparin; PAM NGG.

pKd: −log10 of the molar value. A value given as a limit tells only on which side of the number the result lay.

With EMX1 sgRNA ; EMX1 locus target, the activity in series [1] is less than 2 % indels.
The pKd is the negative decadic logarithm of the Kd, by convention in mol/L. In turn, delta-hairpins1-2 sgRNA showed a pKd in series [2] (5 mM MgCl2, RT) of less than 7.00.
In series [3], delta-spacer-nexus sgRNA had a negative logarithm of the Kd (pKd) of less than 7.00.
As for full-length sgRNA, the pKd in series [2] (Example 1, p568 gives range 0.2-0.8 nM) was 9.30.
“full-length sgRNA ; target dsDNA (55 bp, with PAM)”: the pKd in series [4] is 9.70; in series [5], 6.15.

These data come from patent US11208638.
